Key:
[1] = target: T1, mesothelin on the cell surface (OVCAR3, Capan-2 cells) (UniProt Q13421 296-598); assay: cell-based or functional assay
[2] = target: T1, mesothelin on the cell surface (OVCAR3, …); assay: flow cytometry on OVCAR3 cells
[3] = target: T2, mesothelin (soluble, recombinant) (UniProt Q13421 296-580, limits assumed); assay: method not stated; quoted in the T cell activation example
T2 construct: also called MSLN; soluble MSLN

CD3 on Jurkat cells = target: T3, CD3 on Jurkat cells (UniProt P07766 23-207); assay: flow cytometry on Jurkat cells
T3 construct: whole, on cells; Part of the TCR/CD3 complex on cells

[4] = target: T2, mesothelin (soluble, recombinant); assay: Octet BLI, bsAb captured on AHC biosensors, mesothelin 0-200 nM, 1:1 model
Source text: The Fe-epitope anti-human capture (AHC) biosensors from ForteBio were used for loading the testing bsAbs. […] A probe loaded with a control antibody was used as a reference sensor. […] The dissociation constants (KD) and Kₒₙ/Koff are estimated by fitting to the 1:1 binding model. The probes were regenerated for multiple rounds of measurements.

[5] = target: T2, mesothelin (soluble, recombinant); assay: cell-based or functional assay
[6] = target: mesothelin on the cell surface (OVCAR3, Capan-2 cells) (UniProt Q13421 296-598); assay: cell-based or functional assay; remark: listed apart in the source
[7] = target: T2, mesothelin (soluble, recombinant); assay: SPR (Biacore 3000), antibody captured on the chip via an Fc antibody, mesothelin 0.625-10 nM [text above the curves]
Procedure: The measurement was performed by immobilizing the tested antibody and then perfusing with corresponding concentrations of mesothelin.

[8] = target: T2, mesothelin (soluble, recombinant); assay: SPR, Biacore 3000, antibody captured via an Fc antibody, mesothelin 0.625-10 nM

Binder	EC50, T cell activation assay (Jurkat NFAT-luciferase reporter) in the presence of Capan-2 cells [1] [µg/mL]	EC50, T cell activation assay (Jurkat NFAT-luciferase reporter) in the presence of OVCAR3 cells [1] [µg/mL]	EC50 [2] [µg/mL]	Kd [3] [pM]	EC50 (CD3 on Jurkat cells) [µg/mL]	Kd [4] [pM]	koff [4] [s⁻¹]	kon [4] [M⁻¹ s⁻¹]	fold increase of the IC50 in the luciferase-based cytotoxicity assay on NCI-N87 cells at 200 ng/mL of soluble MSLN [5] [fold]	EC50, T cell activation assay (Jurkat NFAT-luciferase reporter) in the presence of Capan-2 cells [6] [µg/mL]	EC50, T cell activation assay (Jurkat NFAT-luciferase reporter) in the presence of OVCAR3 cells [6] [µg/mL]	koff [7] [s⁻¹]	kon [7] [M⁻¹ s⁻¹]	Kd [8] [pM]
m912-[L]-scFv^CD3 bsAb (bispecific antibody, V domains shown) VH: QVQLQESGPGLVKPSETLSLTCTVSGGSVSSGSYYWSWIRQPPGKGLEWIGYIYYSGSTNYNPSLKSRVTISVDTSKNQFSLKLSSVTAADTAVYYCAREGKNGAFDIWGQGTMVTVSS VL: not shown	6.92	6.64	0.572	72000	0.403	–	–	–	–	–	–	–	–	–
MSLN-39-[L]-scFv^CD3 bsAb (bispecific antibody, V domains shown) VH: QVQLQESGPGLVKPSETLSLTCTVSGGSVSSFTDTWSWIRQPPGKGLEWIGYIYYSGSTNYNPSLKSRVTISVDTSKNQFSLKLSSVTAADTAVYYCAREDALTGFDIWGQGTMVTVSS VL: DIQMTQSPSSLSASVGDRVTITCRASQSSRYYVNWYQQKPGKAPKLLIYAASSLQSGVPSRFSGSGSGTDFTLTISSLQPEDFATYYCQQSYDASYTFGGGTKVEIK	0.0128	0.0082	0.0124	–	0.893	1.07	4.05e-07	379000	27	–	–	–	–	–
MSLN-30-[L]-scFv^CD3 bsAb (bispecific antibody, V domains shown) VH: QVQLQESGPGLVKPSETLSLTCTVSGGSVSSRDDLWSWIRQPPGKGLEWIGYIYYSGSTNYNPSLKSRVTISVDTSKNQFSLKLSSVTAADTAVYYCARDFVLSGFDIWGQGTMVTVSS VL: DIQMTQSPSSLSASVGDRVTITCRASQSISSYLNWYQQKPGKAPKLLIYAASSLQSGVPSRFSGSGSGTDFTLTISSLQPEDFATYYCQQPYDASYTFGGGTKVEIK	0.0117	0.0098	0.0121	–	0.521	1.71	2.44e-07	221000	–	–	–	–	–	–
HP4-44-[L]-scFv^CD3 bsAb (bispecific antibody, V domains shown) VH: QVQLQESGPGLVKPSETLSLTCTVSGGSVSSGSYYWSWIRQPPGKGLEWIGYIYYSGSTNYNPSLKSRVTISVDTSKNQFSLKLSSVTAADTAVYYCAREDVLSGFDIWGQGTMVTVSS VL: DIQMTQSPSSLSASVGDRVTITCRASQSISSYLNWYQQKPGKAPKLLIYAASSLQSGVPSRFSGSGSGTDFTLTISSLQPEDFATYYCQQSYDAFYTFGGGTKVEIK	0.0105	0.0087	0.0096	–	0.636	2910	0.000809	278000	2.5	–	–	–	–	–
MSLN-31-[L]-scFv^CD3 bsAb (bispecific antibody, V domains shown, IgG-[L]-scFv format; also called MSLN-31 bsAb; not shown: IgG heavy constant region (N297G, K322A), light constant region and the huOKT3-scFv with its 3xG4S linker; copies: 2 + 2) VH: QVQLQESGPGLVKPSETLSLTCTVSGGSVSSFTDTWSWIRQPPGKGLEWIGYIYYSGSTNYNPSLKSRVTISVDTSKNQFSLKLSSVTAADTAVYYCARDFVLSGFDIWGQGTMVTVSS VL: DIQMTQSPSSLSASVGDRVTITCRASQSISSYLNWYQQKPGKAPKLLIYAASSLQSGVPSRFSGSGSGTDFTLTISSLQPEDFATYYCQQPYDASYTFGGGTKVEIK	–	–	–	–	–	1.18	3.03e-07	258000	–	0.0156	0.0116	–	–	–
MSLN-39 IgG (antibody, V domains shown, IgG; also called MSLN-39 antibody; MSLN-39 in IgG format) VH: QVQLQESGPGLVKPSETLSLTCTVSGGSVSSFTDTWSWIRQPPGKGLEWIGYIYYSGSTNYNPSLKSRVTISVDTSKNQFSLKLSSVTAADTAVYYCAREDALTGFDIWGQGTMVTVSS VL: DIQMTQSPSSLSASVGDRVTITCRASQSSRYYVNWYQQKPGKAPKLLIYAASSLQSGVPSRFSGSGSGTDFTLTISSLQPEDFATYYCQQSYDASYTFGGGTKVEIK	–	–	–	–	–	–	–	–	–	–	–	8.93e-05	1.58e+06	56.4

Source: US20260209319A1 (JECHO LABORATORIES, published 2026)
